Legend:
[1] = target: T1, SMC1/SMC3/SCC1 cohesin Trimer (UniProt Q14683 1-1233; Q9UQE7 1-1217; O60216 1-631); experiment: mass photometry; in solution; titration at constant cohesin Trimer (50 nM total protein, 12.6 ± 0.9 nM effective Trimer), STAG1 3 to 30 nM, six concentrations with 3 technical repeats each; incubated to equilibrium; molar fraction of the complex fitted to the Hill equation; settings: both partners purified
T1 construct: SMC1 subunit of the cohesin Trimer; SMC3 subunit of the cohesin Trimer; kleisin SCC1 (also known as RAD21 or Mcd1) of the cohesin Trimer; also called the cohesin Trimer; Trimer (SMC1/SMC3/SCC); copies: + +

[2] = target: T1, SMC1/SMC3/SCC1 cohesin Trimer; experiment: mass photometry; in solution; KD from evaluating the individual mass distributions of the STAG1 and cohesin Trimer mixtures directly (single-shot); settings: both partners purified

T1 sequence (Q14683 whole entry, chain 1 of 3): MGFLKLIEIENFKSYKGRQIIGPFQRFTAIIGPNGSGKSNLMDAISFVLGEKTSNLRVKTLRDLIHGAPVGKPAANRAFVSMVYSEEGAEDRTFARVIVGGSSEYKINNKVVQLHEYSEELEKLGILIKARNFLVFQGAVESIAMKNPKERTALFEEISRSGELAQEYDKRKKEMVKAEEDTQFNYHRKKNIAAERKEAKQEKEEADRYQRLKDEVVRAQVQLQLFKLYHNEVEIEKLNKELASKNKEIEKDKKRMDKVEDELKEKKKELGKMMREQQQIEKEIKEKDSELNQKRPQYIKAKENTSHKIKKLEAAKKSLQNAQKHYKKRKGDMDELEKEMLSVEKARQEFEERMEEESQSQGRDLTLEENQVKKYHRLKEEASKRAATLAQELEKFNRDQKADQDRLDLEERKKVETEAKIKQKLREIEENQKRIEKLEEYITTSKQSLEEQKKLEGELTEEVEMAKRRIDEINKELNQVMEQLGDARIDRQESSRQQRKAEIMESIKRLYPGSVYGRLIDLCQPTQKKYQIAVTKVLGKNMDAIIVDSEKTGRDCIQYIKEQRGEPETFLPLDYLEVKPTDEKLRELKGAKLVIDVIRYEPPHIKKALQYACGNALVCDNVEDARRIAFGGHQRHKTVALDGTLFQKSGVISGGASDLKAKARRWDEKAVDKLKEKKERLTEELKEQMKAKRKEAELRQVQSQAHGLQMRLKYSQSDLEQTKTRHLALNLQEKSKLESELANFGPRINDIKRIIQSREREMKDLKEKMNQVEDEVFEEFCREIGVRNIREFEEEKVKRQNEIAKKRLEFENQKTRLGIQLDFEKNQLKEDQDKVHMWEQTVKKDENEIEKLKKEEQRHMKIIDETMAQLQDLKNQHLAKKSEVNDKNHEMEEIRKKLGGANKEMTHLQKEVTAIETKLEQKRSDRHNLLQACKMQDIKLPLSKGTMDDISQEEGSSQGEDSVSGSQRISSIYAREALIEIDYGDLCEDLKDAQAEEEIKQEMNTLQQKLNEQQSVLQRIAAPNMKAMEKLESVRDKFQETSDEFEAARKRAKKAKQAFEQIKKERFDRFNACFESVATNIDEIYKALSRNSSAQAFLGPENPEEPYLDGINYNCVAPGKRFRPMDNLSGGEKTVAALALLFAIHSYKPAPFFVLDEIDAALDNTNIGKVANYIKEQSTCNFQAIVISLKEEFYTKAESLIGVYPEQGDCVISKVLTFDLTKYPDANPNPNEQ
T1 sequence (Q9UQE7 whole entry, chain 2 of 3): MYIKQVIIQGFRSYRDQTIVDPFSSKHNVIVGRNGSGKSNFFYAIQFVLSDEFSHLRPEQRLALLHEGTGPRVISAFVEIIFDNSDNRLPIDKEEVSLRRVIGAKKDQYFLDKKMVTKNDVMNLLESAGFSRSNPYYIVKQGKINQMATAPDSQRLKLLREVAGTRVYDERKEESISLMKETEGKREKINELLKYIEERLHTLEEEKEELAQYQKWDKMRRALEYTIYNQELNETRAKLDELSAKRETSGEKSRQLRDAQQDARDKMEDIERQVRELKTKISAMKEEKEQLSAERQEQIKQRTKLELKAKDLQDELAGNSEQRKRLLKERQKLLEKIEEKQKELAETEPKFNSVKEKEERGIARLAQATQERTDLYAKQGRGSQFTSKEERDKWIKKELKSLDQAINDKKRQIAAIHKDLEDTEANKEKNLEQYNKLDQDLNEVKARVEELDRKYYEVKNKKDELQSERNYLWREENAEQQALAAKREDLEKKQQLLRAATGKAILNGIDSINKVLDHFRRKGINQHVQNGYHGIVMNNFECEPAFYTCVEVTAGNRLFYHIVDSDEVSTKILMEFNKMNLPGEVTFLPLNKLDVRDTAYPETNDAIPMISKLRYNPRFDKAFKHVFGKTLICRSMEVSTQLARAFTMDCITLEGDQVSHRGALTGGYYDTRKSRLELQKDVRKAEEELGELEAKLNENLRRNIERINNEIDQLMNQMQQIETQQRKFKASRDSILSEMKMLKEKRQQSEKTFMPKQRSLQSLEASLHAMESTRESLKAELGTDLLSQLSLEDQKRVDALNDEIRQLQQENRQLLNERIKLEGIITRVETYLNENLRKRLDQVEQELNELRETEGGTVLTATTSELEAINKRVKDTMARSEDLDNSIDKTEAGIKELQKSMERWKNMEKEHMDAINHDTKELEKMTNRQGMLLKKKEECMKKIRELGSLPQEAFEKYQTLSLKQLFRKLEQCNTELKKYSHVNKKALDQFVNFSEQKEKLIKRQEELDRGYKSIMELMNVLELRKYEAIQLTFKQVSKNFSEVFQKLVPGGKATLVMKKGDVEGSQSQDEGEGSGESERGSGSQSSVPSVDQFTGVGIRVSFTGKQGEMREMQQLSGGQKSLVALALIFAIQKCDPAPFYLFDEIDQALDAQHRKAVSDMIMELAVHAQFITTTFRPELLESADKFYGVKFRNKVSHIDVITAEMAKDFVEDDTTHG
T1 sequence (O60216 whole entry, chain 3 of 3): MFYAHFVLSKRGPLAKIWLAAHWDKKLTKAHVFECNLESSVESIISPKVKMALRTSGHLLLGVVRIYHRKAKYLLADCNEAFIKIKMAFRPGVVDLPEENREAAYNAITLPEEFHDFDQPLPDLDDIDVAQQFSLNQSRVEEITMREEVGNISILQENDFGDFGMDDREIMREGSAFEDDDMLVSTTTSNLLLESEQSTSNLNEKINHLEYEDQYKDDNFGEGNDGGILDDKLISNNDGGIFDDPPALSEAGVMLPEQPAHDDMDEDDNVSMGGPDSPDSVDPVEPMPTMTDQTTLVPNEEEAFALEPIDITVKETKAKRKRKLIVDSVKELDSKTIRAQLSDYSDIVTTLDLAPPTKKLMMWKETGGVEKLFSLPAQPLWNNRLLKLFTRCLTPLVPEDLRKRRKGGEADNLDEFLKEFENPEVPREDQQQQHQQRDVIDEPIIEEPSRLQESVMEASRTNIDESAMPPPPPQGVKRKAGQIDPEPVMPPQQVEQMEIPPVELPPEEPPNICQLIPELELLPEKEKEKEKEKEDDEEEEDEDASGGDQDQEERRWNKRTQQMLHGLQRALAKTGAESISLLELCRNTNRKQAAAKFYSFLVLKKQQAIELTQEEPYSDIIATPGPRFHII

- Kd [1]: 6.2 ± 0.7 nM
- Kd [2]: 5.4 ± 1.7 nM
B1: STAG1 (natural protein, human, UniProt Q8WVM7 1-1258, looked up)
chain: MITSELPVLQDSTNETTAHSDAGSELEETEVKGKRKRGRPGRPPSTNKKPRKSPGEKSRIEAGIRGAGRGRANGHPQQNGEGEPVTLFEVVKLGKSAMQSVVDDWIESYKQDRDIALLDLINFFIQCSGCRGTVRIEMFRNMQNAEIIRKMTEEFDEDSGDYPLTMPGPQWKKFRSNFCEFIGVLIRQCQYSIIYDEYMMDTVISLLTGLSDSQVRAFRHTSTLAAMKLMTALVNVALNLSIHQDNTQRQYEAERNKMIGKRANERLELLLQKRKELQENQDEIENMMNSIFKGIFVHRYRDAIAEIRAICIEEIGVWMKMYSDAFLNDSYLKYVGWTLHDRQGEVRLKCLKALQSLYTNRELFPKLELFTNRFKDRIVSMTLDKEYDVAVEAIRLVTLILHGSEEALSNEDCENVYHLVYSAHRPVAVAAGEFLHKKLFSRHDPQAEEALAKRRGRNSPNGNLIRMLVLFFLESELHEHAAYLVDSLWESSQELLKDWECMTELLLEEPVQGEEAMSDRQESALIELMVCTIRQAAEAHPPVGRGTGKRVLTAKERKTQIDDRNKLTEHFIITLPMLLSKYSADAEKVANLLQIPQYFDLEIYSTGRMEKHLDALLKQIKFVVEKHVESDVLEACSKTYSILCSEEYTIQNRVDIARSQLIDEFVDRFNHSVEDLLQEGEEADDDDIYNVLSTLKRLTSFHNAHDLTKWDLFGNCYRLLKTGIEHGAMPEQIVVQALQCSHYSILWQLVKITDGSPSKEDLLVLRKTVKSFLAVCQQCLSNVNTPVKEQAFMLLCDLLMIFSHQLMTGGREGLQPLVFNPDTGLQSELLSFVMDHVFIDQDEENQSMEGDEEDEANKIEALHKRRNLLAAFSKLIIYDIVDMHAAADIFKHYMKYYNDYGDIIKETLSKTRQIDKIQCAKTLILSLQQLFNELVQEQGPNLDRTSAHVSGIKELARRFALTFGLDQIKTREAVATLHKDGIEFAFKYQNQKGQEYPPPNLAFLEVLSEFSSKLLRQDKKTVHSYLEKFLTEQMMERREDVWLPLISYRNSLVTGGEDDRMSVNSGSSSSKTSSVRNKKGRPPLHKKRVEDESLDNTWLNRTDTMIQTPGPLPAPQLTSTVLRENSRPMGDQIQEPESEHGSEPDFLHNPQMQISWLGQPKLEDLNRKDRTGMNYMKVRTGVRHAVRGLMEEDAEPIFEDVMMSSRSQLEDMNEEFEDTMVIDLPPSRNRRERAELRPDFFDSAAIIEDDSGFGMPMF
notes: human STAG1, a HAWK subunit of cohesin; measured at 148 ± 2 kDa by mass photometry; also called Scc3

Reference: article PMC12358912, “NIPBL and STAG1 enable loop extrusion by providing differential DNA–cohesin affinity” (Proceedings of the National Academy of Sciences of the …, 2024)
